The values below come from patent publication US20130171153A1 (TRANSBIO, published 2013).

One assay addresses T1, mouse PI16 (mouse, UniProt Q9ET66 30-498, limits assumed).
T1 construct: also called Mus musculus PI16
T1 sequence: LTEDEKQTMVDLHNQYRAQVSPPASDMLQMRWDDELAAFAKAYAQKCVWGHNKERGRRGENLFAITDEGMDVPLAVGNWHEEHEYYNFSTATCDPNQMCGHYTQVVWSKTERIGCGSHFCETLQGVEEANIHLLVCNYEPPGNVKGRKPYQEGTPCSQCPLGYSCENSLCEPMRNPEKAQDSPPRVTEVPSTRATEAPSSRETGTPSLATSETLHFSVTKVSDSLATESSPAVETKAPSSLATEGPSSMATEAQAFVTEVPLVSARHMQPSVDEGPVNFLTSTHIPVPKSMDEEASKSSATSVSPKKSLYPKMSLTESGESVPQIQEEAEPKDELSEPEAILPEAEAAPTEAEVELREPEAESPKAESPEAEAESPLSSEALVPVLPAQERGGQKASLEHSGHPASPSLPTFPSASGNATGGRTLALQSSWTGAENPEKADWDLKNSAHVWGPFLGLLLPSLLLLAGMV
Kind of assay: not described.

The target of assay [1] is T2, Abnova recombinant PI16 protein (expressed using a wheat germ cell free system) (UniProt Q6UXB8 1-463, limits assumed).
T2 construct: Bought product; also called Rec. protein Abnova; Abnova recombinant protein
T2 sequence (looked up): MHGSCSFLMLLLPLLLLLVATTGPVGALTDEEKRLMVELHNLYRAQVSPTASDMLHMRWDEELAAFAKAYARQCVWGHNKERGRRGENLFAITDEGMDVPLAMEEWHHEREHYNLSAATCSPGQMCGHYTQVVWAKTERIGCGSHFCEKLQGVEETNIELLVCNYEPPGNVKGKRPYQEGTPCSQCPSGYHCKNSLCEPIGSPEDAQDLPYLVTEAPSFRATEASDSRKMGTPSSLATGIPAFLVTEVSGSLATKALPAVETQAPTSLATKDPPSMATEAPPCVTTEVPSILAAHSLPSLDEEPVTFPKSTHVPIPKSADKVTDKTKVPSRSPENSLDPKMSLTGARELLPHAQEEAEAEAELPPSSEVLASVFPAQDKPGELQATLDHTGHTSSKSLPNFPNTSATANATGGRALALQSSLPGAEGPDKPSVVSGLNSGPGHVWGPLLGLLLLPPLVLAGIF
Kind of assay: slot blot. The protocol:
100 μl of samples (as indicated) were loaded into each slot onto nitrocellulose membrane (Protran; Schleicher & Schuell) under vacuum. After loading, the blot was blocked for 1 hour at RT with 3% skim milk powder (Diploma) in PBS Tween 0.05% (block buffer). The primary Ab (secreted by CRCBT-02-001 or the polyclonal PI16 antibody from Abnova) was diluted in block buffer one in two and incubated on a platform rocker for 1 hour at RT. The blot was washed 3×5 minutes with PBS tween. Biotinylated horse anti mouse (Vector) 1/1000 diluted in block buffer was added and incubated for one hour at RT on rocking platform. The blot was washed 3×5 minutes with PBS tween. A dilution of 1/1000 SA:HRP (GE Healthcare) in block buffer was added and incubated for one hour at RT on rocking platform. The blot was washed 3×5 minutes with PBS tween. An appropriate volume of ECL solutions A and B (enough to cover membrane surface; ECL Advance Western Blotting Kit, GE Healthcare) was added and incubated for one minute with constant shaking. The blot was read immediately in a G:Box (Syngene) upon 15 seconds UV-exposure.
To determine the protein to which the monoclonal antibody binds, slot blots were performed.

For assay [2], the target named is T3, fragment of PI16 expressed by phage clone 4 (round 3) (human).
T3 construct: also called R3 4
T3 chain: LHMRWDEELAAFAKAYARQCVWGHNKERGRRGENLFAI
Kind of assay: phage ELISA of PI16 gene fragment clones. In general terms: In an ELISA, binding on a coated surface is turned into a signal by an enzyme label.

Assay [3] addresses T4, fragment of PI16 expressed by phage clone 7 (round 3) (human).
T4 construct: also called R3 7
T4 chain: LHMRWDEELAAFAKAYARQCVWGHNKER
Kind of assay: phage ELISA of PI16 gene fragment clones.

Assay [4] has as its target T5, fragment of PI16 expressed by phage clone 10 (round 3) (human).
T5 construct: also called R3 10
T5 chain: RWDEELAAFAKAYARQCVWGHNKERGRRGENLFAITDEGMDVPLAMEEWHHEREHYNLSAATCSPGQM
Kind of assay: phage ELISA of PI16 gene fragment clones.

Assay [5] addresses T6, fragment of PI16 expressed by phage clone 12 (round 3) (human).
T6 construct: also called R3 12
T6 chain: LHMRWDEELAAFAKAYARQ
Kind of assay: phage ELISA of PI16 gene fragment clones.

Assay [6] addresses T7, fragment of PI16 expressed by phage clone 15 (round 3) (human).
T7 construct: also called R3 15
T7 chain: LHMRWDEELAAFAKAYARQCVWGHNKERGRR
Put plainly: phage ELISA of PI16 gene fragment clones.

In assay [7] the target is T8, PI16-Fc (extracellular domain of human PI16, aa 28-443, tev-protease cleavage site, C-terminal human Fc) (human, UniProt P01857-1 104-330 = IgG part).
T8 construct: domain: Fc; also called recombinant PI16-Fc; native PI16-Fc; not shown: tev-protease cleavage site
T8 sequence (P01857 other isoform, or with tags, fused parts or gaps): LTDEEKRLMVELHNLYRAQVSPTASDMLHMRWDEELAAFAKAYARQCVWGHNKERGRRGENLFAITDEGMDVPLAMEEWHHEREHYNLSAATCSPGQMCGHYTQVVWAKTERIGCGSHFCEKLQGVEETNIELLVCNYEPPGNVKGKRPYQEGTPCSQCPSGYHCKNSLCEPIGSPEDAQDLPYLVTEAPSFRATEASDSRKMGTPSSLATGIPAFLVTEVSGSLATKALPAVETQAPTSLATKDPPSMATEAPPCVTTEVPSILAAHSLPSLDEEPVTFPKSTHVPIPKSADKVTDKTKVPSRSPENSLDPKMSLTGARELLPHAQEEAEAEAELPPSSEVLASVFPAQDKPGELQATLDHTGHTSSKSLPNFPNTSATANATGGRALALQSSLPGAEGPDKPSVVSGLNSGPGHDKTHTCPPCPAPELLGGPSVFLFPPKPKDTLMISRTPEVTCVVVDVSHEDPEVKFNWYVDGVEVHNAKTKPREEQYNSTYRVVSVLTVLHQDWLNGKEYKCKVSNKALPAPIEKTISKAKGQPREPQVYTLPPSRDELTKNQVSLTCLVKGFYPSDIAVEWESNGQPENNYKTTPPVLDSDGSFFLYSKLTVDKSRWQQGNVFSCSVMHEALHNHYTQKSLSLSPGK
Kind of assay: SPR (ProteOn XPR36), mAb captured by anti-mouse IgG on GLM chip, PI16-Fc as analyte, Langmuir global fit. The protocol: A proteOn sensor chip (GLM) was activated by flowing a mixture of 0.2 M EDC and 0.05 M sulpho-NHS over the chip ([…] at 30 μL/min for 5 minutes). Rabbit anti-mouse IgG whole molecule (Sigma M-7023) was then coupled to the chip in the vertical orientation by flowing 150 μL of a 50 μg/mL solution in 10 mM acetate buffer (pH 4.5) at 30 μL/min. The remaining coupling sites were then deactivated by flowing 150 μL of 1 M ethanolamine-HCl (pH 8.5) at 30 μL/min. Mouse monoclonal anti PI16 IgG was then allowed to flow over and be captured by the coupled anti-mouse IgG antibody by flowing 150 μL of 100 μg/mL IgG at 25 μL/min over a single channel of the sensor chip in the horizontal direction. […] PBS Tween 20 (0.005%) alone was passed over the remaining channel and served as a reference. Binding sensorgrams were collected and analysed with the ProteOn Manager 2.1×PR36 software using the Langmuir kinetic model to fit the data and determine the affinity constant (KD).
The published method (Nahshol et al., 2008) was used to measure the kinetics of the PI16 mab by anti-mouse capture. This is a relatively mild method coupling method and the association and dissociation curves and affinity measurement was performed with 4 dilutions of the PI16-Fc (FIG. 43 and Table 9). The data fitted well to a Langmuir kinetic model using global fit (all the curves fitted simultaneously).

Assay [8] concerns the target T8, PI16-Fc (extracellular domain of human …). Put plainly: SPR (ProteOn XPR36), PI16-Fc amine-coupled to GLC chip, Fab as analyte, Langmuir global fit. The protocol:
A ProteOn sensor chip (GLC) was activated by flowing a mixture of 0.2 M N-ethyl-N′-(3-dimethylaminopropyl) carbodiimide (EDC) and 0.05 M sulfo-N-hydroxysuccinimide (sulfo-NHS) over the chip (150 μL at 30 μL/min for 5 minutes). Recombinant PI16-Fc was coupled to the chip in the vertical orientation by flowing 150 μL of a 50 μg/mL solution in 10 mM acetate buffer (pH 4.5) at 30 μL/min. The remaining activated carboxyl group were then deactivated by flowing 150 μL of 1 M ethanolamine-HCl (pH 8.5) at 30 μL/min. […] PBS Tween 20 (0.005%) alone was passed over the remaining channel. Binding sensorgrams were collected and analysed with the ProteOn Manager 2.1×PR36 software using the Langmuir kinetic model to fit the data and determine the affinity constant (KD).
This coupling method was performed using various pHs to optimise the coupling of PI16-Fc to the GLC chip. The optimal coupling pH was 4.5. The association and dissociation curves and affinity measurement was performed with 3 dilutions of the PI16 Fab shown in FIG. 42 and Table 8. The data fitted well to a Langmuir kinetic model using global fit (all the curves fitted simultaneously).

B1: antibody produced by the hybridoma designated CRCBT-02-001 (ATCC PTA-10685) (antibody, V domains shown)
VH: FGGGLVQPGGSMKLSCVASGFTFSYYWMNWVRQSPEQGLEWIAEIRLQSNDYPTHYAESVKGRFTISRDDSKNSVYLQMNNLRPEDTGIYYCACRYADYFDHWGQGTTLTVSS
VL: VMTQSPAILSVYPGEKVTMTCRASLSVSYMHWCQQKPGSSPKSWIYATSNLASGVPARFSGSGSGTSYSLTISRVEAEDAATYYCQQWSSNPFTFGSGTKLEIKR
notes: constant regions are not; Used as hybridoma supernatant or as Protein G purified antibody; also called CRCBT-002-001; P1G5-P2B3
Regarding B1, the binding result with mouse PI16 was “no binding”; in assay [1], “no binding”; in assay [2], “binds”; in assay [3] it was “binds”; in assay [4], “binds”; in assay [5], “binds”. Also, in [6], the binding result is recorded as “binds”. Further, the Kd (in general, the constant that tells how readily two partners part at equilibrium) in assay [7] came out at 2.56 nM. The koff (usually a measure of how fast the partners let go of each other) in assay [7] was found to be 0.000149 s⁻¹. For the same molecule, in assay [7], the kon – broadly, a measure of how fast the partners come together – turned out to be 58200 M⁻¹ s⁻¹.

B2: CRCBT-02-001 Fab (Fab, V domains shown)
VH: B1 VH
VL: B1 VL
notes: also called PI16 Fab; Anti-PI16 Fab fragment
For the molecule B2, in assay [8], the Kd amounted to 1.25 nM, the koff came to 0.000372 s⁻¹ and the kon was 297000 M⁻¹ s⁻¹.
